In patent US9994626B2, “Stable polypeptides binding to human complement C5” (Swedish Orphan Biovitrum AB (publ), priority 2013, dated 2018):

Assays:
[1] = Accelerated stability study, 2 weeks at 37° C., SDS-PAGE and Reversed Phase HPLC (RPC)
Procedure: The stability was measured by the appearance of new variants after the stability testing by SDS-PAGE and Reversed Phase HPLC (RPC). In both analyses the initial sample and the one subjected to the stability study were run in parallel. For the SDS-PAGE, 7.5 μg protein was loaded into each well.
The purified proteins were formulated in 25 mM NaP/125 mM NaCl pH 7.0 and subjected to an accelerated stability study for 2 weeks at 37° C. The stability was measured by the appearance of new variants after the stability testing by SDS-PAGE and Reversed Phase HPLC (RPC). In both analyses the initial sample and the one subjected to the stability study were run in parallel. For the SDS-PAGE, 7.5 μg protein was loaded into each well.

[2] = 3 month stability test at 37° C., RPC; type: physicochemical
Source text: The 2 weeks data from example 2 is included in Table VIII below to make the interpretation easier.

[3] = after 2 weeks at 37° C., 25 mM NaP/125 mM NaCl pH 7.0

B1: PSI0383: C5 binding compound with N52S, D53E, D60E and loop [L2] substitutions D36R, D37Q, S39E (protein)
chain: AEAKYAKEVLEAWDEIDRLPNLTIEQWLAFINKLDRQPEQSSELLSEAKKLSESQAPKVEGSLAEAKEAANAELDSYGVSDFYKRLIDKAKTVEGVEALKDAILAALP
modifications: Modified bacterial sequence
For B1, the “stability when compared with PSI0242” value ([1]; 2 weeks at 37° C., conclusion in words) was “increased stability”, the “Main peak (% of total protein)” value ([1]; RPC after 2 weeks at 37° C., 25 mM NaP/125 mM NaCl pH 7.0) was 91 % of total protein and the “2 weeks, 37° C. Main peak (% of total protein)” value ([1]; RPC, 2 weeks, 37° C., data from example 2) was 91 % of total protein. It also gave an RPC post peaks [1, 3] of 0, an RPC prepeaks [1, 3] of 0 and an SDS-PAGE bands [1, 3] of 1. For the same molecule, the “3 months, 37° C. Main peak (% of total protein)” value ([2]; RPC, 3 months, 37° C.) was 59 % of total protein and the “proportion of protein in the original form after 3 months at 37° C. versus PSI0242 after 2 weeks” value ([2]; result in words) was “higher proportion of protein in the original form”.
